Laboratory results: patent publication US20230002480A1

Experiments:
Assay in all cases: cell-based or functional assay
[1] = biological target: HIV-1 Env pseudovirus C1080.c03 (HIV-1)
[2] = biological target: HIV-1 Env of pseudovirus Ce704809221_1B3 (HIV-1)
[3] = biological target: HIV-1 Env pseudovirus T255-34 (HIV-1)
[4] = biological target: HIV-1 Env of pseudovirus BF1266.431a (HIV-1)
[5] = biological target: HIV-1 Env of pseudovirus Q769.d22 (HIV-1)
[6] = biological target: HIV-1 Env of pseudovirus CNE52 (clade BC) (HIV-1)
[7] = biological target: HIV-1 Env of pseudovirus CNE19 (clade BC) (HIV-1)
[8] = biological target: HIV-1 Env of pseudovirus BJOX015000.11.5 (HIV-1)
[9] = biological target: HIV-1 Env of pseudovirus RHPA4259.7 (clade B) (HIV-1)
[10] = biological target: HIV-1 Env of pseudovirus 3415.v1.c1 (HIV-1)
[11] = biological target: HIV-1 Env of pseudovirus X2088_c9 (HIV-1)
[12] = biological target: HIV-1 Env of pseudovirus 0815.v3.c3 (HIV-1)
[13] = biological target: HIV-1 Env of pseudovirus WITO4160.33 (clade B) (HIV-1)
[14] = biological target: HIV-1 Env of pseudovirus WEAU_d15_410_787 (clade B (T/F)) (HIV-1)

For N49P9.1 (antibody), the IC50 [1] was 0.156 µg/mL, the IC80 [1] was 0.939 µg/mL and the MPI [1] was 100. For the same substance, the IC50 [2] was 0.162 µg/mL, the IC80 [2] was 0.661 µg/mL and the MPI [2] was 100. For the same substance, the IC50 [3] was 0.092 µg/mL, the IC80 [3] was 0.286 µg/mL and the MPI [3] was 100. The IC50 [4] was 0.808 µg/mL, the IC80 [4] was 3.14 µg/mL and the MPI [4] was 95. For the same substance, the IC50 [5] was 0.039 µg/mL, the IC80 [5] was 0.148 µg/mL and the MPI [5] was 100.
With N49P11 (antibody) the IC50 [6] was 0.06 µg/mL, the IC80 [6] was 0.307 µg/mL and the MPI [6] was 100. It also gave an IC50 [7] of 0.437 µg/mL, an IC80 [7] of 5.5 µg/mL and an MPI [7] of 100. The IC50 [8] was 0.288 µg/mL, the IC80 [8] was 1.28 µg/mL and the MPI [8] was 100. For the same substance, the IC50 [9] was 0.202 µg/mL, the IC80 [9] was 0.956 µg/mL and the MPI [9] was 100. For the same substance, the IC50 [10] was 1.86 µg/mL, the IC80 [10] was 10.3 µg/mL and the MPI [10] was 100. It also gave an IC50 [11] of 6.82 µg/mL, an IC80 [11] of 22 µg/mL and an MPI [11] of 100. It also gave an IC50 [12] of 0.106 µg/mL, an IC80 [12] of 0.372 µg/mL and an MPI [12] of 100. It also gave an IC50 [13] of 4.86 µg/mL, an IC80 [13] of 13.2 µg/mL and an MPI [13] of 100. It also gave an IC50 [14] of 1.7 µg/mL, an IC80 [14] of 6.02 µg/mL and an MPI [14] of 100.
N49P18.1 (antibody) was tested, and the IC50 [6] was 2.46 µg/mL, the IC80 [6] was 6.65 µg/mL and the MPI [6] was 100. It also gave an IC50 [7] of 2.34 µg/mL, an IC80 [7] of 9.64 µg/mL and an MPI [7] of 99. For the same substance, the IC50 [8] was 27.3 µg/mL, the IC80 [8] was over 50 µg/mL and the MPI [8] was 67. The IC50 [9] was 4.34 µg/mL, the IC80 [9] was 21.4 µg/mL and the MPI [9] was 98. It also gave an IC50 [10] of over 50 µg/mL, an IC80 [10] of over 50 µg/mL and an MPI [10] of 48. It also gave an IC50 [11] of 9.08 µg/mL, an IC80 [11] of 34.9 µg/mL and an MPI [11] of 88. It also gave an IC50 [12] of 0.741 µg/mL, an IC80 [12] of 8.45 µg/mL and an MPI [12] of 99. For the same substance, the IC50 [13] was 11 µg/mL, the IC80 [13] was 37.6 µg/mL and the MPI [13] was 87. For the same substance, the IC50 [14] was 4.27 µg/mL, the IC80 [14] was 15.5 µg/mL and the MPI [14] was 98.
N49P19 (antibody) showed an IC50 [1] of 0.682 µg/mL, an IC80 [1] of 3.05 µg/mL and an MPI [1] of 100. It also gave an IC50 [2] of 3.75 µg/mL, an IC80 [2] of 19.2 µg/mL and an MPI [2] of 93. It also gave an IC50 [3] of 0.948 µg/mL, an IC80 [3] of 6.22 µg/mL and an MPI [3] of 97. It also gave an IC50 [4] of over 50 µg/mL, an IC80 [4] of over 50 µg/mL and an MPI [4] of 15. The IC50 [5] was 0.14 µg/mL, the IC80 [5] was 0.519 µg/mL and the MPI [5] was 100.
